Reference: US6660837B1, “Modified protein derived from protein kinase N” (Kirin Beer Kabushiki Kaisha, priority 1995, dated 2003)
Entries after “also recorded” stand apart in the source; their conditions may differ.

Experiments:
wild type RhoA = biological target: T1, wild type RhoA (Homo sapiens, UniProt P61586); assay: Yeast two-hybrid, N-terminal region of PKN with wild type RhoA; assay type: binding; settings: yeast L40, histidine requirement
T1 construct: expressed in transfected cells; host or cells: yeast strain L40
From the text: (§1) According to a method described in A. B. Vojetk et al. Cell 74, 205-214 (1993), wild type H-Ras, wild type RhoA with C-terminal CAAX structure removed (S. Ando et al. Jikken Igaku 11, 1973-1980 (1993)), and variant RhoA^Val14cDNA fragment, were introduced into pBTM116 vector (A. B. Vojetk et al, ibid.) to construct vectors (designated as pBTM116-RasWT, pBTM116-RhoWT, and pBTM116-Rho^Val14), for expression thereof and LexA as fusion protein in yeast cells, which were then transformed into yeast (strain L40).
(§2) cDNA in N-terminal region (the amino acid sequence 7-155 in SEQ ID NO: 1) of PKN was introduced into BamHI site of pACT vector ([…] Library Kit, manufactured by Clontech Laboratories, Inc.) to construct a vector (designated as pACTIIHK-PKN-N) for expression thereof and GAL4 as fusion protein in yeast cells. The cDNA fragment, used here, corresponding to the N-terminal region of PKN was prepared as described in Example 4 (1).
(§3) Yeast transformed with pBTM116-RasWT, pBTM116-RhoWT, and pBTM116-Rho^Val14 was further transformed with pACTIIHK-PKN-N. Transformants were screened based on histidine requirement (A. B. Vojetk et al, Cell 74, 205-214 (1993).

variant RhoA^Val14 = biological target: T2, variant RhoA^Val14 (Homo sapiens, UniProt P61586, G14V); assay: Yeast two-hybrid, N-terminal region of PKN with RhoA^Val14; assay type: binding; settings: yeast L40, histidine requirement
T2 construct: expressed in transfected cells; host or cells: yeast strain L40
From the text: as §1, §2, §3

RhoA^Val14 CLVL^− = biological target: T3, RhoA^Val14 CLVL^− (Homo sapiens, UniProt P61586, G14V); assay: Yeast two-hybrid, truncated PKN with RhoA^Val14CLVL^−; assay type: binding; settings: yeast L40
T3 construct: expressed in transfected cells; host or cells: yeast strain L40
From the text: The cDNA fragments encoding various length of human PKN were inserted into the vector pBTM116 (Example 7) in frame with the upstream LexA DNA-binding domain sequences or the vector pVP16 (Example 7) in frame with the upstream VP16 transcription activation domain sequences. The cDNA fragments encoding human RhoA, RhoA^Val14, and RhoA^Ala37 were obtained by digesting pGEX-RhoA, pGEX-RhoA^Val14, and pGEX-RhoA^Ala37 (Example 1) with restriction enzymes, respectively, then cloned into pBTM116 and pVP16.
The expression plasmids were transfected into yeast L40 cells and plated on semi-solid media lacking tryptophan and leucine. Interaction was examined using a filter lift assay for the β-galactosidase activity in the same manner as in Example 6. […]

α-actinin (HuActSkl) = assay: Yeast two-hybrid, regions of PKN with HuActSkl; assay type: binding, human
Procedure: Schemes of the fusion constructs for human PKN, human skeletal muscle type α-actinin (HuActSkl , designated in (Beggs, A., et al., J. Biol. Chem. 267, 9281-9288 (1992)) and non-skeletal muscle type α-actinin (HuActNm, designated in (Beggs, A., et al., J. Biol. Chem. 267, 9281-9288 (1992)) used in this study are shown in FIGS. 41 and 42. Screening of proteins, which bind to the N-terminal region of human PKN (the amino acid sequence 1-540, this region being designated as “PKNNl”), was performed as described in Example 6. Primary positive clones were recovered and retransfected into the original yeast host strain YGH1 (a, ura3-52, his3-200, ade2-101, lys2-801, trpl-901, leu2-3, Can^r, gal4-542, gal80-538, LYS2::gal1uas-gal1tala-HIS3, URA3::gall-lacZ) in combination with the Gal4bd-PKN or the Gal4bd-p53 tumor suppresser. Plasmids that activated marker expression only in the presence of PKN were analyzed further.
The two-hybrid methods was employed to identify the region of PKN that interacted with HuActSkl , and this region was compared with the binding site for RhoA, which binds to PKN, in vitro and in vivo. […] This region corresponds to the second leucine zipperlike sequence and the N-terminal region adjacent thereto, which is conserved through evolution in vertebrates (Mukai, H., et al., Biochim. Biophys. Acta 1261, 296-300 (1995)). […]

[1] = biological target: T4, binding of PKN to GTPγS.GST-RhoA (Homo sapiens, UniProt P61586); assay: Inhibition of binding between in vitro translated PKN and GTPγS.GST-RhoA by synthetic peptides; settings: concentration-dependent
T4 construct: made in house; PKN 1-474: in vitro translation
Procedure: A protein corresponding to the amino acid sequence 1-474 in SEQ ID NO: 1) was prepared by in vitro translation. GTPγS or GDP.GST-RhoA (15 nM) was incubated with PKN (1.5 μl) prepared by in vitro translation in a total volume of 200 μl of binding buffer (20 mM Tris/HCl at pH 7.5, 1 mM EDTA, 0.5 mM DTT, 5 mM MgCl2 and 1 μg/ml leupeptin) for 60 min at 4° C. Then 40 μl of glutathione-Sepharose 4B (Pharmacia Biotech) preincubated in binding buffer containing 10 mg/ml E. coli extracts to block non-specific binding was added, and the mixture was rotated for 30 min at 4° C. Unbound proteins were removed by four washes with binding buffer containing 0.2% Nonidet P-40 and 50 mM NaCl, and by two washes with binding buffer. Specifically bound proteins were eluted with binding buffer containing 10 mM reduced glutathione and subjected to SDS-PAGE, and the gel was subjected to autoradiography.
Synthetic peptide fragments for potential RhoA binding region of PKN were synthesized with an automated peptide synthesizer (Applied Biosystems, model 431). An experiment using synthetic peptides wes carried out using the peptides in various concentrations in 200 μl of binding buffer.

PKN in Swiss 3T3 cells = assay type: cell-based; settings: 200 ng/ml for 10 min
[2] = biological target: T5, binding of full-length α-actinin (HuActSkl) to GST-PKNN1 (Homo sapiens, UniProt P35609); assay: Effect of PI4,5P2 on in vitro binding between α-actinin and PKN
T5 construct: 2 μl of in vitro translated full-length HuActSkl was mixed with 5 μg of GST-PKNN1 fusion protein; made in house; host or cells: HuActSkl: rabbit reticulocyte lysate; GST-PKNN1: E. coli
Procedure: For analysis of the effect of phosphatidylinositol 4,5 bisphosphate (PI4, 5P2) (Boehringer Mannheim) on the binding between α-actinin and PKN, 2 μl of in vitro translated full-length HuActSkl was mixed with 5 μg of GST-PKNN1 fusion protein or with 25 μg of GST alone in 400 μl of buffer P (20 mM Tris/HCl at pH 7.5, 0.5 mM DTT, 120 mM NaCl, 1 mM EDTA) and incubated for 1 hr at room temperature with or without PI4, 5P2. After addition of 25 μl of glutathione-Sepharose 4B pretreated with E. coli extract, the binding reaction was continued for additional 30 min at 4° C. The glutathione-Sepharose 4B was then washed four times in buffer P containing 0.01% Triton X-100. Bound proteins were eluted with GST elution buffer and were subjected to SDS-PAGE. The binding was visualized and quantitated by an imaging analyzer (FUJI BAS1000).

With “N-terminal region (amino acids 7-155) of PKN: amino acid sequence 7-155 in SEQ ID NO: 1 expressed as GAL4 fusion protein in yeast” the “binding to wild type RhoA” value (wild type RhoA) was “binds” and the “binding to variant RhoA^Val14” value (variant RhoA^Val14) was “binds”.
In the case of “amino acid sequence 1-538: truncated human PKN, amino acid sequence 1-538 in SEQ ID NO: 1, two-hybrid fusion”, the “interaction with RhoA^Val14 CLVL^− (β-galactosidase filter assay)” value (RhoA^Val14 CLVL^−) is reported as “interacted”.
With “amino acid sequence 33-111: truncated human PKN, amino acid sequence 33-111 in SEQ ID NO: 1, Rho protein-binding region” the “interaction with α-actinin in two-hybrid system” value (α-actinin (HuActSkl)) was “hardly interacted” and the “interaction with RhoA^Val14 CLVL^− (β-galactosidase filter assay)” value (RhoA^Val14 CLVL^−) was “interacted”.
With “amino acid sequence 74-93: synthetic peptide fragment corresponding to the amino acid sequence 74-93 in SEQ ID NO: 1 (ELLLRGSSRRLDLLHQQLQE; UniProt Q16512 74-93, looked up, fragment)” the “inhibition of binding of PKN to GTPγS.GST-RhoA” value (“inhibition of binding of PKN” below) [1] was “inhibited the binding”.
With “amino acid sequence 82-103: synthetic peptide fragment corresponding to the amino acid sequence 82-103 in SEQ ID NO: 1 (RRLDLLHQQLQELHAHVVLPDP; UniProt Q16512 82-103, looked up, fragment)” the “inhibition of binding of PKN” value [1] was “excellent inhibitory activity; also recorded: inhibited the binding”.
For “amino acid sequence 94-113: synthetic peptide fragment corresponding to the amino acid sequence 94-113 in SEQ ID NO: 1 (LHAHVVLPDPAATHDGPQSP; UniProt Q16512 94-113, looked up, fragment)”, the “inhibition of binding of PKN” value [1] was “inhibited the binding”.
In the case of lysophosphatidic acid [LAP], the “stimulation of autophosphorylation of PKN” value (PKN in Swiss 3T3 cells) is reported as “twice”.
“phosphatidylinositol 4,5 bisphosphate [PI4, 5P2]” was tested, and the “effect on binding of full-length α-actinin to PKN” value ([2]; 10 μM) was “stimulated the binding” and the “concentration up to which binding activity was elevated” value ([2]; decreased at higher concentrations up to 100 μM) was 2.5 to 10 µM.
